Data set [1] concerns S9.6 Fab WT, PDB:7TQB_1+PDB:7TQB_2. Nature of the data set: fluorescence polarization. The note with it: FP: 25 mM Tris-HCl pH 7.5, 50 mM NaCl, 2 mM MgCl2, 21 C, ~5 nM FAM duplex, ITC same buffer at 25 C, SEC-MALS 150 mM NaCl.
For data set [2] the test system is unchanged. Nature of the data set: fluorescence polarization. The note with it: FP: 25 mM Tris-HCl pH 7.5, 50 mM NaCl, 2 mM MgCl2, 21 C, ~5 nM FAM duplex, ITC same buffer at 25 C, SEC-MALS 150 mM NaCl. The source holds these as a separate data set.
In data set [3] the test system is S9.6 Fab HC_Y54G, PDB:7TQB_1+PDB:7TQB_2. Nature of the data set: fluorescence polarization. The note with it: FP: 25 mM Tris-HCl pH 7.5, 50 mM NaCl, 2 mM MgCl2, 21 C, ~5 nM FAM duplex; ITC same buffer at 25 C; SEC-MALS 150 mM NaCl.
For data set [4], the system named is S9.6 Fab HC_Y101F, PDB:7TQB_1+PDB:7TQB_2. Nature of the data set: fluorescence polarization. The note with it: FP: 25 mM Tris-HCl pH 7.5, 50 mM NaCl, 2 mM MgCl2, 21 C, ~5 nM FAM duplex; ITC same buffer at 25 C; SEC-MALS 150 mM NaCl.
In data set [5] the test system is S9.6 Fab WT, PDB:7TQB_1+PDB:7TQB_2. The experiment in a line: competition. Particulars: FP: 25 mM Tris-HCl pH 7.5, 50 mM NaCl, 2 mM MgCl2, 21 C, ~5 nM FAM duplex; ITC same buffer at 25 C; SEC-MALS 150 mM NaCl.
Data set [6] relates to S9.6 Fab HC_S31G, PDB:7TQB_1+PDB:7TQB_2. Nature of the data set: fluorescence polarization. The note with it: FP: 25 mM Tris-HCl pH 7.5, 50 mM NaCl, 2 mM MgCl2, 21 C, ~5 nM FAM duplex; ITC same buffer at 25 C; SEC-MALS 150 mM NaCl.
The test system of data set [7] is S9.6 Fab HC_Y54Q, PDB:7TQB_1+PDB:7TQB_2. Nature of the data set: fluorescence polarization. The note with it: FP: 25 mM Tris-HCl pH 7.5, 50 mM NaCl, 2 mM MgCl2, 21 C, ~5 nM FAM duplex; ITC same buffer at 25 C; SEC-MALS 150 mM NaCl.
Data set [8] concerns S9.6 Fab HC_Y32A, PDB:7TQB_1+PDB:7TQB_2. The experiment in a line: fluorescence polarization. Particulars: FP: 25 mM Tris-HCl pH 7.5, 50 mM NaCl, 2 mM MgCl2, 21 C, ~5 nM FAM duplex; ITC same buffer at 25 C; SEC-MALS 150 mM NaCl.
Data set [9] relates to S9.6 Fab HC_Y54F, PDB:7TQB_1+PDB:7TQB_2. Nature of the data set: fluorescence polarization. The note with it: FP: 25 mM Tris-HCl pH 7.5, 50 mM NaCl, 2 mM MgCl2, 21 C, ~5 nM FAM duplex; ITC same buffer at 25 C; SEC-MALS 150 mM NaCl.
Data set [10] deals with S9.6 Fab HC_Y54H, PDB:7TQB_1+PDB:7TQB_2. The experiment in a line: fluorescence polarization. The note with it: FP: 25 mM Tris-HCl pH 7.5, 50 mM NaCl, 2 mM MgCl2, 21 C, ~5 nM FAM duplex; ITC same buffer at 25 C; SEC-MALS 150 mM NaCl.
Data set [11] concerns S9.6 Fab HC_Y54W, PDB:7TQB_1+PDB:7TQB_2. Nature of the data set: fluorescence polarization. The note with it: FP: 25 mM Tris-HCl pH 7.5, 50 mM NaCl, 2 mM MgCl2, 21 C, ~5 nM FAM duplex; ITC same buffer at 25 C; SEC-MALS 150 mM NaCl.
Data set [12] concerns S9.6 Fab HC_S31A, PDB:7TQB_1+PDB:7TQB_2. The experiment in a line: fluorescence polarization. The note with it: FP: 25 mM Tris-HCl pH 7.5, 50 mM NaCl, 2 mM MgCl2, 21 C, ~5 nM FAM duplex; ITC same buffer at 25 C; SEC-MALS 150 mM NaCl.
Data set [13] concerns S9.6 Fab HC_Y54D, PDB:7TQB_1+PDB:7TQB_2. Nature of the data set: fluorescence polarization. The note with it: FP: 25 mM Tris-HCl pH 7.5, 50 mM NaCl, 2 mM MgCl2, 21 C, ~5 nM FAM duplex; ITC same buffer at 25 C; SEC-MALS 150 mM NaCl.
Data set [14] relates to S9.6 Fab HC_Y54A, PDB:7TQB_1+PDB:7TQB_2. Nature of the data set: fluorescence polarization. The note with it: FP: 25 mM Tris-HCl pH 7.5, 50 mM NaCl, 2 mM MgCl2, 21 C, ~5 nM FAM duplex; ITC same buffer at 25 C; SEC-MALS 150 mM NaCl.
The test system of data set [15] is S9.6 Fab HC_Y54R, PDB:7TQB_1+PDB:7TQB_2. Nature of the data set: fluorescence polarization. The note with it: FP: 25 mM Tris-HCl pH 7.5, 50 mM NaCl, 2 mM MgCl2, 21 C, ~5 nM FAM duplex; ITC same buffer at 25 C; SEC-MALS 150 mM NaCl.
The subject of data set [16] is S9.6 Fab WT, PDB:7TQB_1+PDB:7TQB_2. Nature of the data set: ITC. The note with it: 2 mM Mg2+, 25 C; FP: 25 mM Tris-HCl pH 7.5, 50 mM NaCl, 2 mM MgCl2, 21 C, ~5 nM FAM duplex; ITC same buffer at 25 C; SEC-MALS 150 mM NaCl.
Data set [17] concerns S9.6 Fab HC_Y54V, PDB:7TQB_1+PDB:7TQB_2. The experiment in a line: fluorescence polarization. Particulars: FP: 25 mM Tris-HCl pH 7.5, 50 mM NaCl, 2 mM MgCl2, 21 C, ~5 nM FAM duplex; ITC same buffer at 25 C; SEC-MALS 150 mM NaCl.
The test system of data set [18] is S9.6 Fab HC_Y54L, PDB:7TQB_1+PDB:7TQB_2. The experiment in a line: fluorescence polarization. Particulars: FP: 25 mM Tris-HCl pH 7.5, 50 mM NaCl, 2 mM MgCl2, 21 C, ~5 nM FAM duplex; ITC same buffer at 25 C; SEC-MALS 150 mM NaCl.
The subject of data set [19] is S9.6 Fab HC_Y54M, PDB:7TQB_1+PDB:7TQB_2. Nature of the data set: fluorescence polarization. The note with it: FP: 25 mM Tris-HCl pH 7.5, 50 mM NaCl, 2 mM MgCl2, 21 C, ~5 nM FAM duplex; ITC same buffer at 25 C; SEC-MALS 150 mM NaCl.

“CAGACAGACA / UGUCUGUCUG [10-bp hybrid 50% GC]” came in with a Kd in [1] of 3110 nM.

In the case of “CAGACGGACA / UGUCCGUCUG [10-bp hybrid 60% GC]”, the equilibrium dissociation constant (Kd) in [1] stood at 610 nM.

“CGGACGGACA / UGUCCGUCCG [10-bp hybrid 70% GC]” yielded a Kd in data set [1] of 420 nM.

Consider “CGGACGGACG / CGUCCGUCCG [10-bp hybrid 80% GC]”, for which the Kd in [1] was 570 nM.

Take “CGGCCGGACG / CGUCCGGCCG [10-bp hybrid 90% GC]”: in data set [1], the Kd worked out at 1020 nM.

In turn, “CGTGTCAGACAAG / CTTGTCUGACACG [13-bp dsDNA with 2'-OH at U7-G8-A9]” had a Kd in data set [2] (text: Kd > 7 uM, weakly bound, strand 2: ribonucleotides at positions 7-9, rest DNA) of 7000 nM.

In data set [2] (table fit 20.6 +/- 5.8 uM, RNA strand: deoxy at positions 2, 4, 6, 8, 10, 12 (12 inferred, name is cut in the material)), CGTGTCAGACAAG / CTUGUCUGACACG had a Kd of more than 21000 nM.

In data set [2] (RNA strand: deoxy at positions 3, 6, 9, 12), CGTGTCAGACAAG / CUTGUCUGACACG came in with a Kd of 380 nM.

As to “CGTGTCAGACAAG / CUUGUCUGACACG [13-bp DNA-RNA hybrid]”, the dissociation constant (Kd) stood at 232 nM in data set [2] (2 mM Mg2+); 190 nM in data set [1] (2 mM Mg2+); 170 nM in data set [6]; 730 nM in [7]; 25400 nM in data set [8]; 400 nM in [9]. Further, the dissociation constant Kd in data set [10] came out at 360 nM; in data set [11], 760 nM; in data set [12], 140 nM; in [13] it was 5160 nM; in data set [14], 2650 nM; in [15], 150 nM. The sequence further returned an equilibrium dissociation constant (Kd) in [16] of 415 nM. In addition, the binding signal (fold lower affinity than WT) in data set [3] amounted to 58. The same sequence came in with a binding signal (fold lower binding than WT) in data set [4] of less than 2. The sequence further gave an IC50 in [5] of 450 nM.

In data set [1], “CGTGTCTGACAAG / CUUGUCAGACACG [13-bp hybrid rU7A:dA7T]” returned a dissociation constant Kd of 110 nM.

The sequence “CGTGUCAGACAAG / CUUGUCUGACACG [13-bp hybrid, 2'-OH (uridine) at dT5]” returned a dissociation constant (Kd) in data set [1] (DNA strand: ribo-U at position 5) of 140 nM.

In turn, “CGUGUCAGACAAG / CUUGUCUGACACG [13-bp hybrid, 2'-OH at dT3-dG4-dT5-dC6-dA7]” showed a Kd in data set [1] (DNA strand: ribonucleotides at positions 3-7) of 100 nM.

Take “CUUGUCUGACACG / CGUGUCAGACAAG [13-bp dsRNA]”: the dissociation constant Kd in data set [2] (2 mM Mg2+) was determined as 3790 nM; in data set [7], 1640 nM; in data set [17] it was 1610 nM; in [9], 8300 nM; in data set [10], 4300 nM; in data set [18] it was 3990 nM. Besides, the equilibrium dissociation constant (Kd) in [11] amounted to 11800 nM; in data set [19] it was 4530 nM; in data set [14] it was 2350 nM; in data set [15] it was 1910 nM. The IC50 in [5] was 57000 nM.

The values are drawn from PMC8960830.
